The text below walks through data of patent US20140087995A1 (published 2014).

Numbered stars: 1 amine (or outer) side, 2 acyl side, 3 side chain; on linkers, the order of the positions; unused ones are H or OH. Bridge positions count the residues as written; N and C are the ends. Side chains are listed from the residue outwards. Ends that are not written are not given here. * marks the point of attachment. C20 diacid = O=C(O)CCCCCCCCCCCCCCCCCCC(=O)*; γGlu = O=C(O)[C@H](CCC(=O)[*:2])N[*:1]

For assay [1], the target named is T1, human calcitonin receptor (human, UniProt P30988 25-474).
T1 sequence (looked up): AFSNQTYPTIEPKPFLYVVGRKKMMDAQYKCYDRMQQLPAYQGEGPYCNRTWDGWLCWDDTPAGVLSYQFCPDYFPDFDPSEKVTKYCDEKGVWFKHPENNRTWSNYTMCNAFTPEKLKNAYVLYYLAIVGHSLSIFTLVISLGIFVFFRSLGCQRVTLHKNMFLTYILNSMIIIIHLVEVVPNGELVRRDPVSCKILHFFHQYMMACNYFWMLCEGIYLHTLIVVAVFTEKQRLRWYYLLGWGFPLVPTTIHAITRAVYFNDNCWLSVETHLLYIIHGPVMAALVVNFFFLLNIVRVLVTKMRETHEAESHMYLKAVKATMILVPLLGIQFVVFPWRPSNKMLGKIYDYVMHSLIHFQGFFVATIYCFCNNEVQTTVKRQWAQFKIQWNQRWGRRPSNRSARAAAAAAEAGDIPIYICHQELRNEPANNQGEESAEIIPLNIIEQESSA
Briefly: cell-based or functional assay.

Assay [2] deals with T2, human amylin receptor (amylin 3(a) receptor: human calcitonin receptor plus RAMP-3) (human, UniProt P30988 25-474; O60896 24-148, limits assumed).
T2 sequence (looked up) 1: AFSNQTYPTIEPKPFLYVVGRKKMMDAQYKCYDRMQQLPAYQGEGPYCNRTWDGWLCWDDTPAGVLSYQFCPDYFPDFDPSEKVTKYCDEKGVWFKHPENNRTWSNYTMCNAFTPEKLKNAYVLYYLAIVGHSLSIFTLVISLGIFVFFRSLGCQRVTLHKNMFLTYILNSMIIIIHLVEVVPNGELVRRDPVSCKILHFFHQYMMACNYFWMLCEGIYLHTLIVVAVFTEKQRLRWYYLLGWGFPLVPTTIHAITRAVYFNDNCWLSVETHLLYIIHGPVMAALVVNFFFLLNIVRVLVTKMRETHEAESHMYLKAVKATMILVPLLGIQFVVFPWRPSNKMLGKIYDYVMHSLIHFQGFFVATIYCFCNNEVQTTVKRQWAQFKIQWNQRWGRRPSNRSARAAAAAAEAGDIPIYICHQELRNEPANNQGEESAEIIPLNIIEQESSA
T2 sequence (looked up) 2: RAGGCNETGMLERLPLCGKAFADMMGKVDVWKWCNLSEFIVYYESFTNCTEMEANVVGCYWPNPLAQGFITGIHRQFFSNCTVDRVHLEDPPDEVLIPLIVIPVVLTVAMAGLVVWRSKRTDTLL
The assay can be described thus: cell-based or functional assay.

B1: N^ε1-[(4S)-4-carboxy-4-[[(4S)-4-carboxy-4-(19-carboxynonadecanoylamino)butanoyl]amino]butanoyl]-[Asp14,Arg17,Pro21,Pro26,Asp35]-h-amylin (peptide)
peptide: K([γGlu-γGlu-C20 diacid])CNTATCATQRLADFLRHSSPNFGAPLSSTNVGSDTY-NH2
modifications: disulfide 2-7; N-terminus assumed
SMILES: CC(C)C[C@H](NC(=O)[C@H](CCCNC(=N)N)NC(=O)[C@H](CCC(N)=O)NC(=O)[C@@H](NC(=O)[C@H](C)NC(=O)[C@@H]1CSSC[C@H](NC(=O)[C@@H](N)CCCCNC(=O)CC[C@H](NC(=O)CC[C@H](NC(=O)CCCCCCCCCCCCCCCCCCC(=O)O)C(=O)O)C(=O)O)C(=O)N[C@@H](CC(N)=O)C(=O)N[C@@H]([C@@H](C)O)C(=O)N[C@@H](C)C(=O)N[C@@H]([C@@H](C)O)C(=O)N1)[C@@H](C)O)C(=O)N[C@@H](C)C(=O)N[C@@H](CC(=O)O)C(=O)N[C@@H](Cc1ccccc1)C(=O)N[C@@H](CC(C)C)C(=O)N[C@@H](CCCNC(=N)N)C(=O)N[C@@H](Cc1c[nH]cn1)C(=O)N[C@@H](CO)C(=O)N[C@@H](CO)C(=O)N1CCC[C@H]1C(=O)N[C@@H](CC(N)=O)C(=O)N[C@@H](Cc1ccccc1)C(=O)NCC(=O)N[C@@H](C)C(=O)N1CCC[C@H]1C(=O)N[C@@H](CC(C)C)C(=O)N[C@@H](CO)C(=O)N[C@@H](CO)C(=O)N[C@H](C(=O)N[C@@H](CC(N)=O)C(=O)N[C@H](C(=O)NCC(=O)N[C@@H](CO)C(=O)N[C@@H](CC(=O)O)C(=O)N[C@H](C(=O)N[C@@H](Cc1ccc(O)cc1)C(N)=O)[C@@H](C)O)C(C)C)[C@@H](C)O
notes: Synthetic acylated analogue of human amylin; also called compound 1
On to B1, for which the “hCTR funct. EC50” value in assay [1] amounted to 2.7 nM. For the same molecule, in assay [2], the “Ratio hCT/hAmylin funct.” value worked out at 12 ratio and the “hAmylin-R funct. EC50” value was determined as 0.224 nM.

B2: N^ε1-[(4S)-4-carboxy-4-[[(4S)-4-carboxy-4-(19-carboxynonadecanoylamino)butanoyl]amino]butanoyl]-[Asp14,Arg17,Pro22,Pro26,Asp35]-h-amylin (peptide)
peptide: K([γGlu-γGlu-C20 diacid])CNTATCATQRLADFLRHSSNPFGAPLSSTNVGSDTY-NH2
modifications: disulfide 2-7; N-terminus assumed
SMILES: CC(C)C[C@H](NC(=O)[C@H](CCCNC(=N)N)NC(=O)[C@H](CCC(N)=O)NC(=O)[C@@H](NC(=O)[C@H](C)NC(=O)[C@@H]1CSSC[C@H](NC(=O)[C@@H](N)CCCCNC(=O)CC[C@H](NC(=O)CC[C@H](NC(=O)CCCCCCCCCCCCCCCCCCC(=O)O)C(=O)O)C(=O)O)C(=O)N[C@@H](CC(N)=O)C(=O)N[C@@H]([C@@H](C)O)C(=O)N[C@@H](C)C(=O)N[C@@H]([C@@H](C)O)C(=O)N1)[C@@H](C)O)C(=O)N[C@@H](C)C(=O)N[C@@H](CC(=O)O)C(=O)N[C@@H](Cc1ccccc1)C(=O)N[C@@H](CC(C)C)C(=O)N[C@@H](CCCNC(=N)N)C(=O)N[C@@H](Cc1c[nH]cn1)C(=O)N[C@@H](CO)C(=O)N[C@@H](CO)C(=O)N[C@@H](CC(N)=O)C(=O)N1CCC[C@H]1C(=O)N[C@@H](Cc1ccccc1)C(=O)NCC(=O)N[C@@H](C)C(=O)N1CCC[C@H]1C(=O)N[C@@H](CC(C)C)C(=O)N[C@@H](CO)C(=O)N[C@@H](CO)C(=O)N[C@H](C(=O)N[C@@H](CC(N)=O)C(=O)N[C@H](C(=O)NCC(=O)N[C@@H](CO)C(=O)N[C@@H](CC(=O)O)C(=O)N[C@H](C(=O)N[C@@H](Cc1ccc(O)cc1)C(N)=O)[C@@H](C)O)C(C)C)[C@@H](C)O
notes: Synthetic acylated analogue of human amylin; also called compound 3
As to B2, the “hCTR funct. EC50” value in assay [1] stood at 1.38 nM. Moreover, in assay [2], the “Ratio hCT/hAmylin funct.” value amounted to 6.7 ratio and the “hAmylin-R funct. EC50” value turned out to be 0.205 nM.

B3: N{Alpha-1}-[(4S)-4-carboxy-4-(19-carboxynonadecanoylamino)butanoyl]-[Glu14,Arg17,Pro21,Pro27,Lys34]-h-amylin (peptide)
peptide: {C20 diacid-γGlu}-KCNTATCATQRLAEFLRHSSPNFGAIPSSTNVGKNTY-NH2
modifications: disulfide 2-7
SMILES: CC[C@H](C)[C@H](NC(=O)[C@H](C)NC(=O)CNC(=O)[C@H](Cc1ccccc1)NC(=O)[C@H](CC(N)=O)NC(=O)[C@@H]1CCCN1C(=O)[C@H](CO)NC(=O)[C@H](CO)NC(=O)[C@H](Cc1c[nH]cn1)NC(=O)[C@H](CCCNC(=N)N)NC(=O)[C@H](CC(C)C)NC(=O)[C@H](Cc1ccccc1)NC(=O)[C@H](CCC(=O)O)NC(=O)[C@H](C)NC(=O)[C@H](CC(C)C)NC(=O)[C@H](CCCNC(=N)N)NC(=O)[C@H](CCC(N)=O)NC(=O)[C@@H](NC(=O)[C@H](C)NC(=O)[C@@H]1CSSC[C@H](NC(=O)[C@H](CCCCN)NC(=O)CC[C@H](NC(=O)CCCCCCCCCCCCCCCCCCC(=O)O)C(=O)O)C(=O)N[C@@H](CC(N)=O)C(=O)N[C@@H]([C@@H](C)O)C(=O)N[C@@H](C)C(=O)N[C@@H]([C@@H](C)O)C(=O)N1)[C@@H](C)O)C(=O)N1CCC[C@H]1C(=O)N[C@@H](CO)C(=O)N[C@@H](CO)C(=O)N[C@H](C(=O)N[C@@H](CC(N)=O)C(=O)N[C@H](C(=O)NCC(=O)N[C@@H](CCCCN)C(=O)N[C@@H](CC(N)=O)C(=O)N[C@H](C(=O)N[C@@H](Cc1ccc(O)cc1)C(N)=O)[C@@H](C)O)C(C)C)[C@@H](C)O
notes: Synthetic acylated analogue of human amylin; also called compound 36
In the case of B3, the “hCTR funct. EC50” value in assay [1] was found to be 1.28 nM. Besides, in assay [2], the “Ratio hCT/hAmylin funct.” value was 6.8 ratio and the “hAmylin-R funct. EC50” value was found to be 0.189 nM.

B4: N^ε1-[(4S)-4-carboxy-4-[[(4S)-4-carboxy-4-(19-carboxynonadecanoylamino)butanoyl]amino]butanoyl]-[Asp14,Arg17,Pro21,Pro27,Asp35]-h-amylin (peptide)
peptide: K([γGlu-γGlu-C20 diacid])CNTATCATQRLADFLRHSSPNFGAIPSSTNVGSDTY-NH2
modifications: disulfide 2-7; N-terminus assumed
SMILES: CC[C@H](C)[C@H](NC(=O)[C@H](C)NC(=O)CNC(=O)[C@H](Cc1ccccc1)NC(=O)[C@H](CC(N)=O)NC(=O)[C@@H]1CCCN1C(=O)[C@H](CO)NC(=O)[C@H](CO)NC(=O)[C@H](Cc1c[nH]cn1)NC(=O)[C@H](CCCNC(=N)N)NC(=O)[C@H](CC(C)C)NC(=O)[C@H](Cc1ccccc1)NC(=O)[C@H](CC(=O)O)NC(=O)[C@H](C)NC(=O)[C@H](CC(C)C)NC(=O)[C@H](CCCNC(=N)N)NC(=O)[C@H](CCC(N)=O)NC(=O)[C@@H](NC(=O)[C@H](C)NC(=O)[C@@H]1CSSC[C@H](NC(=O)[C@@H](N)CCCCNC(=O)CC[C@H](NC(=O)CC[C@H](NC(=O)CCCCCCCCCCCCCCCCCCC(=O)O)C(=O)O)C(=O)O)C(=O)N[C@@H](CC(N)=O)C(=O)N[C@@H]([C@@H](C)O)C(=O)N[C@@H](C)C(=O)N[C@@H]([C@@H](C)O)C(=O)N1)[C@@H](C)O)C(=O)N1CCC[C@H]1C(=O)N[C@@H](CO)C(=O)N[C@@H](CO)C(=O)N[C@H](C(=O)N[C@@H](CC(N)=O)C(=O)N[C@H](C(=O)NCC(=O)N[C@@H](CO)C(=O)N[C@@H](CC(=O)O)C(=O)N[C@H](C(=O)N[C@@H](Cc1ccc(O)cc1)C(N)=O)[C@@H](C)O)C(C)C)[C@@H](C)O
notes: Synthetic acylated analogue of human amylin; also called compound 2
For the molecule B4, the “hCTR funct. EC50” value in assay [1] was 3 nM. For the same molecule, in assay [2], the “Ratio hCT/hAmylin funct.” value is 16.4 ratio and the “hAmylin-R funct. EC50” value was found to be 0.182 nM.
